The values that follow are results of earlier work, collected in PMC7662862.

pKd: −log10 of the molar value.

The target in one data set is CRB3 (Homo sapiens) (UniProt Q9BUF7). The experiment in a line: ITC.
Data set [1] deals with Merlin N-terminal part (FERM) (Homo sapiens) (UniProt P35240). The experiment in a line: SPR.
UniProt P35240, sequence (P35240 22-311): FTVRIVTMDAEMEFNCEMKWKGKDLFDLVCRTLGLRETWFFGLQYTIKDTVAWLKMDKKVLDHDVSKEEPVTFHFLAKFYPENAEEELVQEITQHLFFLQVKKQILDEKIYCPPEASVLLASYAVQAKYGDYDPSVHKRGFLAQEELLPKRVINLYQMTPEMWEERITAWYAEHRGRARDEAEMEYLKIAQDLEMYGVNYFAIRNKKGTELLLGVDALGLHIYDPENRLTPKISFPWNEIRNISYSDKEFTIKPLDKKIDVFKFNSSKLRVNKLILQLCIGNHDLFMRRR

UniProt Q9BUF7, sequence (Q9BUF7 27-120): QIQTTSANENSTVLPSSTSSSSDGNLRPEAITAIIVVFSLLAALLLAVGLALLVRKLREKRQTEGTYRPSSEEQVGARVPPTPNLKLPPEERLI

For the substance MPP5 PDZ-SH3-GUK (from UniProt Q8N3R9), the pKd in the data set with CRB3 (Homo sapiens) is 7.15.

On to MPP1 (from UniProt Q00013), for which the pKd in data set [1] is 8.43.
